In patent US20220242973A1 (Molecular Partners, published 2022):

T1: Human FAP expressed on the cell surface (WI38, CHO-FAP1.9, U87MG cells) (human, UniProt Q12884 1-760)
T1 construct: whole, on cells; Endogenous on WI38 and U87MG cells; from a human FAP cDNA (OriGene) in CHO-FAP1.9 cells; also called hFAP; FAP+ cells
T1 sequence (looked up): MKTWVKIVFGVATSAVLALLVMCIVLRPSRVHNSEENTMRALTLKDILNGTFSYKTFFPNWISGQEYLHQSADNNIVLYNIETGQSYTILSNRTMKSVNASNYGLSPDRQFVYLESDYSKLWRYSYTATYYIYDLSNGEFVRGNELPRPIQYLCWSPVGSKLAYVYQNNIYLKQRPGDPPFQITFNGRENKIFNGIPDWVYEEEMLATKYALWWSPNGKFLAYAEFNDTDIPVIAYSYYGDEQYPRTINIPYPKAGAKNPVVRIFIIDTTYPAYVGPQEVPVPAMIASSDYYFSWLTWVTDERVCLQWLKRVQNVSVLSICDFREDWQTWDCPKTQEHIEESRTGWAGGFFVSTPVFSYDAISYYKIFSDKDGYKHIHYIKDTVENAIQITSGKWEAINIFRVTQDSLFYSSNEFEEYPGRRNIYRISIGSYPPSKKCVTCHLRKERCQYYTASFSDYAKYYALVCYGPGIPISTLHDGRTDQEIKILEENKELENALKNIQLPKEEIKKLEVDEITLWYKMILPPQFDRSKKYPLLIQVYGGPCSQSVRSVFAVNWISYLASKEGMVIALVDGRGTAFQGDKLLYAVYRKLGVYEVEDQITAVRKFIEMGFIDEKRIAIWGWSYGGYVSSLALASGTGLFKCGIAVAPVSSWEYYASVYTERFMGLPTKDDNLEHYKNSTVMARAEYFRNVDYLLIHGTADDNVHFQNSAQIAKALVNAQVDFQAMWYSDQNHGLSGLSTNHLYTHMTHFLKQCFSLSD

T2: Recombinant human FAP (fibroblast activation protein) (human, UniProt Q12884 26-760)
T2 construct: Bought soluble recombinant protein; Chemically biotinylated for the HTRF screen; also called hFAP; biotinylated human FAP
T2 sequence (looked up): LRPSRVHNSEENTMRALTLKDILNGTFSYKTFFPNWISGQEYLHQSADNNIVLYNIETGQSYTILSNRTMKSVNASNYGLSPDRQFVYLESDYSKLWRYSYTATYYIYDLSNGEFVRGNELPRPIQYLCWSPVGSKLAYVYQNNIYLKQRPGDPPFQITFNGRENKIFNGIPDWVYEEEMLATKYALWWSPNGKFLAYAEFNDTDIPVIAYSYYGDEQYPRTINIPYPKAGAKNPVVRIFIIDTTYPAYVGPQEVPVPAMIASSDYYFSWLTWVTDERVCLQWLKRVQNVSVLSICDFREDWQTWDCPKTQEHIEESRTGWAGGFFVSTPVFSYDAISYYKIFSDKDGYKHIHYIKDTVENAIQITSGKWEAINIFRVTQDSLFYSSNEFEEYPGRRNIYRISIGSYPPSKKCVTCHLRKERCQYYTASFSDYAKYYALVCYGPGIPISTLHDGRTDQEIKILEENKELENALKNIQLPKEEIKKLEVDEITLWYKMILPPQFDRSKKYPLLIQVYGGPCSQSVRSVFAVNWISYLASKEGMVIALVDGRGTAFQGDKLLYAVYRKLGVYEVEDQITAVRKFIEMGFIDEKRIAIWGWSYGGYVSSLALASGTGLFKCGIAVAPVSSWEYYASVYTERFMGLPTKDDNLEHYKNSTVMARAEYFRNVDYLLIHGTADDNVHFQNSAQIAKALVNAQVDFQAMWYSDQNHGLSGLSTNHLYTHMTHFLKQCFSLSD


How the values were obtained:
[1] = biological target: T1, Human FAP expressed on the cell surface …; experiment: FACS on FAP-expressing WI38 cells, Penta-His AF647 detection
Description: Using multi-well plates, 20,000 WI38 cells were added per well in 50 μl of PBS. 50 μl of appropriate dilutions (2× dilution steps) of ankyrin repeat protein was then added to the cells and incubated for 30 minutes on ice. After the ankyrin repeat protein-binding reaction, cells were washed twice with PBS. Direct immunofluorescent detection of the His-tagged ankyrin repeat proteins using Penta-His AF647 conjugate (QIAgen) and determination of live cells using LIVE/DEAD™ Fixable Green Dead Cell Stain Kit (ThermoFisher) were then performed together in one step. The Penta-His AF647 conjugate and the LIVE/DEAD™ Fixable Green dye were applied to the cells together in 1/200 (Penta-His) and 1/1000 (LID Fixable) final dilutions and incubated for 20-30 minutes on ice. After washing the cells with PBS, cells were re-suspended in 1× CellFix™ buffer (BD Biosciences) (10× stock was diluted 1/10 in water). The samples were incubated in CellFix™ buffer for 15-20 minutes at RT, then spun down at 400 g for 5 min. Supernatant was discarded and cells were re-suspended in 200 μl PBS and stored at 4° C. until acquisition and FACS analysis. Acquisition and FACS analysis, including the determination of median fluorescence intensity (MFI), were done within 5 days after staining using an AttuneNxT instrument. Binding curves were fitted by non-linear regression curve fitting using GraphPad Prism software (v 7.0.4).
EC₅₀ values were determined using standard procedures known to the person skilled in the art. […] Table 2 provides the EC₅₀ values of selected ankyrin repeat proteins as examples.

[2] = biological target: T2, Recombinant human FAP (fibroblast …); experiment: SPR (ProteOn), human FAP immobilized on GLC chip
Description: Briefly, human FAP was diluted in 10 mM Na-acetate pH 5.3 buffer and covalently immobilized on a GLC chip (BioRad) to a level of around 2000 resonance units (RU). The interaction of ankyrin repeat protein and hFAP was then measured by injecting 200 μl running buffer (PBS, pH 7.4 containing 0.005% Tween 20®) containing serial dilutions of ankyrin repeat proteins covering a concentration range between 30 nM and 0.5 nM (on-rate measurement), followed by a running buffer flow for at least 25 minutes at a constant flow rate of 100 μl/min (off-rate measurement). The regeneration was performed using 15 μl of 10 mM Glycine pH 2 followed by 15 μl of 124 mM H₃PO₄. The signals (i.e. resonance unit (RU) values) of the interspots and a reference injection (i.e. injection of running buffer only) were subtracted from the RU traces obtained after injection of ankyrin repeat protein (double-referencing). Based on the SPR traces obtained from the on-rate and off-rate measurements, the on- and off-rate of the corresponding ankyrin repeat protein—FAP interaction was determined.
Dissociation constants (KD) were calculated from the estimated on- and off-rates using standard procedures known to the person skilled in the art. […] Table 1 provides the KD values of some selected ankyrin repeat proteins as examples.

[3] = biological target: T2, Recombinant human FAP (fibroblast …); experiment: cell-based or functional assay

Row | EC50 [1] [nM] | Kd [2] [nM] | FAP activity (%) [3] [%] | Binder
1 | 0.523 | 0.057 | 117 | DARPin® protein #11 (designed binder) MRGSHHHHHHGSYPYDVPDYAGSDLGKKLLEAARAGQDDEVRILLAAGADVNAKDTWGWTPLHLAAKSGHLEIVEVLLKAGADVNAKDYHGVTPLHLATFWGHLEIVEVLLKAGADVNAKDWYGETPLHLAAIRGHLEIVEVLLKAGADVNAQDKSGKTPADLAADAGHEDIAEVLQKLN
2 | 0.307 | 0.01 | 88 | DARPin® protein #13 (designed binder) MRGSHHHHHHGSYPYDVPDYAGSDLGKKLLEAARAGQDDEVRILLAAGADVNAKDDWGWTPLHLAARHGHLEIVEVLLKAGTDVNAKDKRGVTPLHLAAYIGHLEIAEVLLKAGADVNAKDFQGWTPLHLAAVRGHLEIVEVLLKAGADVNAQDKSGKTPADLAADAGHEDIAEVLQKLN
3 | – | 0.303 | 146 | DARPin® protein #6 (designed binder) MRGSHHHHHHGSYPYDVPDYAGSDLGKKLLEAARAGQDDEVRELLKAGADVNAKDEWGKTPLHYAAALGHLEIVEVLLKAGADVNAKDQYGATPLHIAAFAGHLEIVEVLLKAGADVNAKDAWGFTPLHLAATRGHLEIVEVLLKAGADVNAQDKSGKTPADLAADAGHEDIVEVLQKLN
4 | – | 0.097 | 123 | DARPin® protein #31 (designed binder) MRGSHHHHHHGSYPYDVPDYAGSDLGKKLLEAARAGQDDEVRELLKAGADVNAKDEFGKTPLHLAAALGHLEIVEVLLKAGADVNAKGLWGETPLHVAAFAGHLEIVEVLLKAGADVNAKDTYGYTPLHLAASRGHLEIVEVLLKAGADVNAQDKSGKTPADLAADAGHEDIAEVLQKLN
5 | – | 0.12 | 97 | DARPin® protein #8 (designed binder) MRGSHHHHHHGSYPYDVPDYAGSDLGKKLLEAARAGQDDEVRELLKAGADVNAKDQHGKTPLHYAAALGHLEIVEVLLKAGADVNAKDRWGATPLHIAAFAGHLEIVEVLLKAGADVNAKDEVGWTPLHLAARFGHLEIVEVLLKAGADVNAQDKSGKTPADLAADAGHEDIVEVLQKLN
6 | 0.789 | 0.194 | 114 | DARPin® protein #12 (designed binder) MRGSHHHHHHGSYPYDVPDYAGSDLGKKLLEAARAGQDDEVRILLAAGADVSAKDQWGWTPLHLAARVGHLEIVEVLLKAGADVNAKDVRGVTPLHLAAFHGHLEIVEVLLKAGADVNAKDYAGHTPLHLAAWQGHLEIIEDLLKAGADVNAQDKSGKTPADLAADAGHEDIAEVLQKLN
7 | 0.654 | – | 103 | DARPin® protein #5 (designed binder) MRGSHHHHHHGSYPYDVPDYAGSDLGYTLLEAARRGQDDEVRELLKAGADVNAKDTIGYTPLHYAAQVGHLEIVEVLLKAGADVNAKDTQGITPLHVAAATGHLEIVEVLLKAGADVNAQDSKGRTPADLAAEQGHEDIAEVLQKLN
8 | – | – | 110 | DARPin® protein #25 (designed binder) MRGSHHHHHHGSYPYDVPDYAGSDLGYKLLEAARRGQDDEVRELLKAGADVNAKDVIGYTPLHYAASEGHLEIVEVLLKAGADVNAKDTKGITPLHVAASTGHLEIVEVLLKAGADVNAQDLRGYTPADLAARQGHEDIGEVLQKLN
9 | – | 0.115 | 104 | DARPin® protein #20 (designed binder) MRGSHHHHHHGSYPYDVPDYAGSDLGEKLLIAALFGQDEEVRILLAAGADVNAKDEWGHTPLHKAALSGHLEIVEVLLKAGADVNAKDQKGSTPLHWAATRGHLEIVEVLLKAGADVNAQDHIGRTPADLAANFGHEDIAEVLQKLN
10 | 3.17 | 3.6 | 115 | DARPin® protein #1 (designed binder) MRGSHHHHHHGSYPYDVPDYAGSDLGKKLLEAARAGQDDEVRILLAAGADVNAKDQYGITPLHLAAFRGHLEIVEVLLKHGAGVNADDMDGRTPLHPAAYKGHLEIVEVLLKNGADVNAQDKFGKTAFDISIDNGNEDLAEILQKLN
11 | 0.512 | 10.4 | 120 | DARPin® protein #10 (designed binder) MRGSHHHHHHGSYPYDVPDYAGSDLGKKLLEATRAGQDDEVRILLAAGADVNAKDEYGITPLHLAAFRGHLEIVEVLLKHGADVNAIDYNGRTPLHPAAYSGHLEIVEVLLKYGADVNAQDKFGKTAFDISIDNGNEDLAEILQKLN
12 | – | 0.023 | 97 | DARPin® protein #16 (designed binder) MRGSHHHHHHGSYPYDVPDYAGSDLGKKLLEAARAGQDDEVRILMANGTDVNATDMTGRTPLHLAALYGHLEIVEVLLKYGADVNALDKFGITPLHLAAFMGHLEIVEVLLKYGADVNAADLDGRTPLHPTAYRGHLEIVEVLLKNGADVNAQDKFGKTAFDISIDNGNEDLAEILQKLN
13 | – | 0.063 | 96 | DARPin® protein #17 (designed binder) MRGSHHHHHHGSYPYDVPDYAGSDLGKKLLEAARAGQDDEVRILMANGADVNATDLMGRTPLHLAASRGHLEIVEVLLKNGADVNADDKYGITSLHLAAFLGHLEIVEVLLKYGADVNAIDFDGRTPLHPAAYRGHLEIVEVLLKHGADVNAQDKFGQTAFDISIDNGNEDLAEILQKLN
